In publication PMC6910952 (Nature Communications, 2019):
Several values for one entry are separate records, joined by “and”; a condition that tells them apart may be missing. Equal entries are not always repeated. No end group written: not given here.

Columns and labels:
Test in all cases: fluorescence polarisation; fluorescence anisotropy; 1 nM FlAsH-labeled His6-SUMO-yUfd1 peptide, His6-yNpl4^113–580 in two-fold dilution series; 25 °C; 50 mM Tris-HCl pH 8.0, 100 mM NaCl, 5 mM β-mercaptoethanol, 0.1 g/L BSA
Settings in all cases: both partners purified
His6-yNpl4^113–580 L296A = target: T1, His6-yNpl4^113–580 L296A (Saccharomyces cerevisiae, UniProt P33755 113-580, L296A)
T1 construct: also called yNpl4 L296A; source: E. coli Rosetta (DE3), purified (Ni-NTA, Resource Q); not shown: His6, N-terminal, kept
T1 sequence (looked up): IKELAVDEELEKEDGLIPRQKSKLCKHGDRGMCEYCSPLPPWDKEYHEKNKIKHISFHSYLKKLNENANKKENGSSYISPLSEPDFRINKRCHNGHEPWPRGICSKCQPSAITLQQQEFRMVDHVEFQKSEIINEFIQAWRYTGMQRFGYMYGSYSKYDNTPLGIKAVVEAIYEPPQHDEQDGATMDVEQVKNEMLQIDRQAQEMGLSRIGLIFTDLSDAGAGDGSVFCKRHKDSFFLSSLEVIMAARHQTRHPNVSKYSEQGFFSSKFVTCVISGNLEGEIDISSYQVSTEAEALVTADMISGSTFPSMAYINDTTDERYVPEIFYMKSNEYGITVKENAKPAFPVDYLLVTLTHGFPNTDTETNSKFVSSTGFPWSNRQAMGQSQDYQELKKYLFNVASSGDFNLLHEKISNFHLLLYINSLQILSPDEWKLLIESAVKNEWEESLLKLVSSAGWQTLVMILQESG

His6-yNpl4^113–580 = target: T2, His6-yNpl4^113–580 (Saccharomyces cerevisiae, UniProt P33755 113-580)
T2 construct: codon-optimized synthetic cDNA; also called WT; WT #1; source: E. coli Rosetta (DE3), purified (Ni-NTA, Resource Q); also in lysate, mixed with cells expressing GST-yUfd1 for co-purification; not shown: His6, N-terminal, kept
T2 sequence (looked up): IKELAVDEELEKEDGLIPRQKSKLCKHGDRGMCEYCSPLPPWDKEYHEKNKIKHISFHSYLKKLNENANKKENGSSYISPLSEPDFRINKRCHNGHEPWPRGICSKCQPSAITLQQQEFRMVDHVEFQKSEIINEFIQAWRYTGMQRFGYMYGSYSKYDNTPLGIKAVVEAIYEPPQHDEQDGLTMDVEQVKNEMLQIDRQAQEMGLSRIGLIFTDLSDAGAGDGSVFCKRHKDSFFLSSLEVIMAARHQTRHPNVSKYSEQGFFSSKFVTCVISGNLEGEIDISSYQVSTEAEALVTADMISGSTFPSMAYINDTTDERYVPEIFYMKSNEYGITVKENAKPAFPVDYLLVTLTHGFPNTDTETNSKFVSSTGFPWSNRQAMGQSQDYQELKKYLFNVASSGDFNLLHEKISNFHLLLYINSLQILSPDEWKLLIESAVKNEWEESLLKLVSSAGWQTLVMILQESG

His6-yNpl4^113–580 F419A = target: T3, His6-yNpl4^113–580 F419A (Saccharomyces cerevisiae, UniProt P33755 113-580, F419A)
T3 construct: also called yNpl4 F419A; source: E. coli Rosetta (DE3), purified (Ni-NTA, Resource Q); not shown: His6, N-terminal, kept
T3 sequence (looked up): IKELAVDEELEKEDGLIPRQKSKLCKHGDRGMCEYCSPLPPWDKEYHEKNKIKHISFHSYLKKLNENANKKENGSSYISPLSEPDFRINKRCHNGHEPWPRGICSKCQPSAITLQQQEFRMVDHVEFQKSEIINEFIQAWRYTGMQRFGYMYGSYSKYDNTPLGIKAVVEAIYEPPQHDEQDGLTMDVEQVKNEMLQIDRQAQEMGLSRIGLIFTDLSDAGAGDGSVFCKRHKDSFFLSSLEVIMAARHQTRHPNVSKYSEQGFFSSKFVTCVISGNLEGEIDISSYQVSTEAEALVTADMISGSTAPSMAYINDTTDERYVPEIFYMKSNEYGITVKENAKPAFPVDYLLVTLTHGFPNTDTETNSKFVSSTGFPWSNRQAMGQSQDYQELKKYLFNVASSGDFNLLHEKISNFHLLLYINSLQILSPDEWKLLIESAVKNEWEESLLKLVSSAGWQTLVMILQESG

His6-yNpl4^113–580 Y424A = target: T4, His6-yNpl4^113–580 Y424A (Saccharomyces cerevisiae, UniProt P33755 113-580, Y424A)
T4 construct: also called yNpl4 Y424A; source: E. coli Rosetta (DE3), purified (Ni-NTA, Resource Q); not shown: His6, N-terminal, kept
T4 sequence (looked up): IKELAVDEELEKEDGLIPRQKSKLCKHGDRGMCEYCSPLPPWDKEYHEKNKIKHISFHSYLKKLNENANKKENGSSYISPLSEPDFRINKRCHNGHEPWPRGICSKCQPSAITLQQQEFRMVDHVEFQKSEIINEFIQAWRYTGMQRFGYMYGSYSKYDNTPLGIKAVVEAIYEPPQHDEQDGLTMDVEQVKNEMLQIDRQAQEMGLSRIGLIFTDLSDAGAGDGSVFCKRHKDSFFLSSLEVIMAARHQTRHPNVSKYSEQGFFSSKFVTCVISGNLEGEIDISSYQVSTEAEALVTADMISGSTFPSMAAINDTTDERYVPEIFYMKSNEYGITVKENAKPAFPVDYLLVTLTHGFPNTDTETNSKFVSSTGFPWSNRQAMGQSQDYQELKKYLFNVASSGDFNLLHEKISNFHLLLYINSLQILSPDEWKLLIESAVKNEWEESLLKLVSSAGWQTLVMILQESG

B1: FlAsH-labeled His6-SUMO-yUfd1^288–305-GWCCPGCC (peptide, UniProt P53044 288-305, looked up)
chain: {His6-SUMO}-EPAKLDLPEGQLFFGFPMGWCCPGCC
modifications: cysteine pairing not given here; also: FlAsH label bound to CCPGCC motif
notes: the assay methods print 280-305; also called yUfd1-FlAsH; yUfd1 WT; source: E. coli Rosetta (DE3) (pCold-SUMO), purified (Ni-NTA, Resource Q), labeled with FlAsH-EDT2; not shown: His6, N-terminal, kept; SUMO, N-terminal, kept
- Kd (His6-yNpl4^113–580 L296A): 7.02 µM
- Kd (His6-yNpl4^113–580): 85.7 nM and 99.4 nM
- Kd (His6-yNpl4^113–580 F419A): 158 nM
- Kd (His6-yNpl4^113–580 Y424A): 8.45 µM
